This series in a line: protein stability index of a GFP-peptide fusion (GPS, HEK-293T) (PSI 1-6); higher = more stable.
The mark [1] stands for this setting: treatment: DMSO, c terminus: a fixed tail appended.
The mark [2] stands for this setting: treatment: MLN4924 1 uM, 8 h, c terminus: a fixed tail appended.

± gives the standard deviation.
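Further: 24-mer peptide tiles fused after GFP, lentivirally expressed, FACS-sorted into six equal bins by GFP/DsRed ratio, decoded by Illumina sequencing, PSI is the read-weighted mean bin number.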

MKKAKEQLKIRKSNQIPTEVRSKA [FUNDC2] gave a protein stability index under setting [1] of 4.59 ± 0.34 and a protein stability index under setting [2] of 4.76 ± 0.45.

Sequence MLSWILRINLVAAIFSAPAFPAAV [PSD2] registered a protein stability index under setting [1] of 3.23 ± 0.19 and a protein stability index under setting [2] of 2.89 ± 0.39.

Take MMGLAQIYKKYALQSAAGKDAAKQ [PDS5B]: the protein stability index by setting is: under setting [1], 2.8 ± 0.27; under setting [2], 3.23 ± 0.1.

With MNGGMSLVAFVLLNECVGTAYWAL [SLC22A15], the protein stability index reads like this: under setting [1], 3.91 ± 2; under setting [2], 3.13 ± 0.38.

MNHYKKTTLEIHNTEERQKRQVTH [PTPN9] showed a protein stability index under setting [1] of 4.52 ± 0.06 and a protein stability index under setting [2] of 4.49 ± 0.36.

Regarding MPALEGAPHTPPLPRRPRKGSSEL [RNF208], the protein stability index under setting [1] was 5.11 ± 0.27 and the protein stability index under setting [2] stood at 5.21 ± 0.22.

For MPQYILREFKVTDARDGQSRTVRQ [PTPRD], the protein stability index came out at 3.75 ± 0.18 under setting [1] and 4.18 ± 0.27 under setting [2].

Consider MPSPTDVVLPGAVSLRYSGATAAS [ADAMTS4], for which the protein stability index runs as follows: under setting [1], 4.16 ± 0.3; under setting [2], 4.25 ± 0.32.

On to MPTQEVQELPIPSKLLEFLSYRI [WSB1], for which the protein stability index worked out at 2.82 ± 0.2 (treatment: DMSO, c terminus: native) and 3.05 ± 0.12 (treatment: MLN4924 1 uM, 8 h, c terminus: native).

With MQVLGPEDLQSIIYKLEEHEEFFP [CEP70], the protein stability index reads like this: under setting [1], 2.99 ± 0.53; under setting [2], 3.41 ± 0.39.

Regarding MREMFFEDHIDDAKYCGHLYGLGS [CNOT7], the protein stability index under setting [1] worked out at 2.68 ± 0.093 and the protein stability index under setting [2] turned out to be 2.44 ± 0.28.

Take MRGVAEVKEPCSLPMLSVDMENKE [SAMD13]: the protein stability index by setting is: under setting [1], 5.32 ± 0.18; under setting [2], 5.53 ± 0.21.

In turn, MRTTNLDNRCKLFDSPSLCSSSTR [CDC25A] returned a protein stability index under setting [1] of 3.21 ± 0.4 and a protein stability index under setting [2] of 3.18 ± 0.24.

MSALGSPVRAYDFLLKFLLVGDSD [RAB40B] came in with a protein stability index under setting [1] of 2.42 ± 0.38 and a protein stability index under setting [2] of 2.13 ± 0.32.

Regarding MSLHGASGGHERSRDRRRSSDRSR [BTBD10], the protein stability index was found to be 5.05 ± 0.16 under setting [1] and 5.19 ± 0.22 under setting [2].

Consider MSPESYLGSPQHSPSTRGSPNRSL [ATF4], for which the protein stability index came to 4.64 ± 0.19 under setting [1] and 4.91 ± 0.3 under setting [2].

Turning to MSQPRTPEQALDTPGDCPPGRRDE [TMEM175], the protein stability index under setting [1] amounted to 5.38 ± 0.17 and the protein stability index under setting [2] came to 5.58 ± 0.19.

MVLAPVFGYLGDRYNRKYLMCGGI [SPNS1] gave a protein stability index under setting [1] of 2.61 ± 0.058 and a protein stability index under setting [2] of 2.5 ± 0.84.

Take MVRFKHRYLLCELVSDDPRCRLSL [POP5]: the protein stability index amounted to 2.56 ± 0.38 under setting [1] and 2.55 ± 0.58 under setting [2].

Regarding MYDLPKKEDALLYQSKGYNDDYYE [EMD], the protein stability index is 4.27 ± 0.15 under setting [1] and 4.25 ± 0.22 under setting [2].

As for MYEEEINETRRKHETRLVEVDSGR [LMNB1], the protein stability index reads like this: under setting [1], 5.04 ± 0.44; under setting [2], 5.06 ± 0.099.

Take NAGLSHTEYQIVTDPGDVPAFLKW [SLC2A12]: the protein stability index under setting [1] turned out to be 2.92 ± 0.3 and the protein stability index under setting [2] was determined as 3.1 ± 0.34.

For the sequence NAMTCEGCKGFFRRSMKRKALFTC [VDR], the protein stability index is 2.38 ± 0.36 under setting [1] and 2.22 ± 0.6 under setting [2].

For NCNWFCEGSFNGSEKETMQFLNDR [KRT33B], the protein stability index reads like this: under setting [1], 3.54 ± 0.35; under setting [2], 3.61 ± 0.19.

The sequence NDFWRIEVVNRKFGNRIKVLRSRI [POMT2] came in with a protein stability index under setting [1] of 2.19 ± 0.6 and a protein stability index under setting [2] of 2.17 ± 0.48.

In the case of NEIIKKLQGDLKTLMGKLKLKNTV [SASS6], the protein stability index under setting [2] turned out to be 2.21 ± 0.35.

For NGTMTIDWNEWRDYHLLHPVENIP [SLC25A25], the protein stability index by setting is: under setting [1], 3.18 ± 0.28; under setting [2], 3.07 ± 0.19.

Turning to NHWVPACHSFNRAIHKKAKGTEAE [FBXO34], the protein stability index turned out to be 4 ± 0.17 under setting [1] and 4.1 ± 0.12 under setting [2].

In turn, NIADIEEKRGFTSHFVFVIEVKTK [NCF4] had a protein stability index under setting [1] of 2.47 ± 0.74 and a protein stability index under setting [2] of 2.62 ± 0.44.

These data come from the supplement of paper PMC10567573.
